# Reference: article PMC8503651, “The Stress-Active Cell Division Protein ZapE Alters FtsZ Filament Architecture to Facilitate Division in Escherichia coli” (Frontiers in Microbiology, 2021)
# B1: FtsZ (native) (natural protein, Escherichia coli, UniProt P0A9A6 1-383, looked up)
# chain: MFEPMELTNDAVIKVIGVGGGGGNAVEHMVRERIEGVEFFAVNTDAQALRKTAVGQTIQIGSGITKGLGAGANPEVGRNAADEDRDALRAALEGADMVFIAAGMGGGTGTGAAPVVAEVAKDLGILTVAVVTKPFNFEGKKRMAFAEQGITELSKHVDSLITIPNDKLLKVLGRGISLLDAFGAANDVLKGAVQGIAELITRPGLMNVDFADVRTVMSEMGYAMMGSGVASGEDRAEEAAEMAISSPLLEDIDLSGARGVLVNITAGFDLRLDEFETVGNTIRAFASDNATVVIGTSLDPDMNDELRVTVVATGIGMDKRPEITLVTNKQVQQPVMDRYQQHGMAPLTQEQKPVAKVVNDNAPQTAKEPDYLDIPAFLRKQAD
# notes: FtsZ, tubulin-like GTPase and cell division protein of Escherichia coli; native (no tag named); Assembles into polymers with GTP; also called Native FtsZ; wild type FtsZ; source: E. coli BL21 (λde3), purified as described (Camberg et al., 2009)
# Tests used:
# [1] = molecular target: ZapE (N-terminal six histidine fusion protein) (Escherichia coli) (UniProt P64612); assay: co-sedimentation; phospholipid recruitment: Gfp-FtsZ (3 μM) with GTP (4 mM) added to ZapE (1 μM) pre-assembled with SUVs (500 μg ml^-1) and ATP (4 mM); 50 mM HEPES pH 7.5, 150 mM KCl, 20 mM MgCl2; 21,000 × g for 15 min; percent in the pellet by densitometry; 6% of Gfp-FtsZ in the pellet without …
# [2] = molecular target: Histidine-tagged Gfp-FtsZ (Escherichia coli); assay: filter retention (ultrafiltration, 100 kDa filter); ZapE or ZapE(K84A) (5 μM) with Gfp-FtsZ (10 μM) and ATP (4 mM), without GTP; 50 mM MES pH 6.5, 100 mM KCl, 10 mM MgCl2, 23°C, 10 min; filtrate and retentate by SDS-PAGE and densitometry; ZapE alone retained 33.4%, ZapE(K84A) alone 50.3%
# FtsZ (native) [3] = molecular target: B1; assay: cell-based or functional assay
# [4] = substrate: Nc1ncnc2c1ncn2[C@@H]1O[C@H](COP(=O)(O)OP(=O)(O)OP(=O)(O)O)[C@@H](O)[C@H]1O; assay: phosphate release (Biomol Green), Michaelis-Menten fit; format: biochemical, Escherichia coli; conditions: 12 μM ZapE, ATP 0 to 5 mM, 50 mM HEPES pH 7.5, 150 mM KCl, 20 mM MgCl2, 23°C
# FtsZ (native) [5] = molecular target: B1; assay: co-sedimentation; FtsZ (6 μM) with GTP (2 mM) or without GTP, with or without ZapE or ZapE(K84A) (8 μM), with or without ATP or ATPγS (4 mM); 50 mM HEPES pH 7.5, 150 mM KCl, 20 mM MgCl2, 23°C, 10 min; 250,000 × g for 20 min; supernatants and pellets by SDS-PAGE and Coomassie; conditions: both partners purified
# [6] = molecular target: the molecule itself; assay: as above
molecule,measurement,setting,value
Histidine-tagged Gfp-FtsZ,percent of total Gfp-FtsZ in the phospholipid pellet,[1],21.6%
"ZapE (N-terminal six histidine fusion protein) (enzyme, Escherichia coli, UniProt P64612 1-375, looked up) MQSVTPTSQYLKALNEGSHQPDDVQKEAVSRLEIIYQELINSTPPAPRTSGLMARVGKLWGKREDTKHTPVRGLYMWGGVGRGKTWLMDLFYQSLPGERKQRLHFHRFMLRVHEELTALQGQTDPLEIIADRFKAETDVLCFDEFFVSDITDAMLLGGLMKALFARGITLVATSNIPPDELYRNGLQRARFLPAIDAIKQHCDVMNVDAGVDYRLRTLTQAHLWLSPLHDETRAQMDKLWLALAGGKRENSPTLEINHRPLATMGVENQTLAVSFTTLCVDARSQHDYIALSRLFHTVMLFDVPVMTRLMESEARRFIALVDEFYERHVKLVVSAEVPLYEIYQGDRLKFEFQRCLSRLQEMQSEEYLKREHLAG",percent of total ZapE retained on the filter,[2],63.4%
same,"maximum 90° light scatter of FtsZ (8 μM) after addition of GTP (1.5 mM), ZapE 0 to 8 μM with ATP (4 mM)",FtsZ (native) [3],> 2 fold
"ZapE (H6-ZapE) (Escherichia coli K-12) (protein, full-length, N-terminal 6xHis tag kept, pET-28a, expressed in E. coli BL21 (λde3); calculated mass 44,583 Da; predominantly monomer) MQSVTPTSQYLKALNEGSHQPDDVQKEAVSRLEIIYQELINSTPPAPRTSGLMARVGKLWGKREDTKHTPVRGLYMWGGVGRGKTWLMDLFYQSLPGERKQRLHFHRFMLRVHEELTALQGQTDPLEIIADRFKAETDVLCFDEFFVSDITDAMLLGGLMKALFARGITLVATSNIPPDELYRNGLQRARFLPAIDAIKQHCDVMNVDAGVDYRLRTLTQAHLWLSPLHDETRAQMDKLWLALAGGKRENSPTLEINHRPLATMGVENQTLAVSFTTLCVDARSQHDYIALSRLFHTVMLFDVPVMTRLMESEARRFIALVDEFYERHVKLVVSAEVPLYEIYQGDRLKFEFQRCLSRLQEMQSEEYLKREHLAG",Km,[4],1.7 ± 0.36 mM
"ZapE(K84A) (N-terminal histidine fusion protein) (enzyme, Escherichia coli, UniProt P64612 1-375, looked up, ZapE of Escherichia coli with the Walker A substitution K84A (defective for ATP hydrolysis); pET-28a, site-directed mutagenesis; also called H6-ZapE(K84A); His6-zapE(K84A); source: E. coli BL21 (λde3), purified (cobalt column, sephadex G25); not shown: His6, N-terminal, kept) MQSVTPTSQYLKALNEGSHQPDDVQKEAVSRLEIIYQELINSTPPAPRTSGLMARVGKLWGKREDTKHTPVRGLYMWGGVGRGATWLMDLFYQSLPGERKQRLHFHRFMLRVHEELTALQGQTDPLEIIADRFKAETDVLCFDEFFVSDITDAMLLGGLMKALFARGITLVATSNIPPDELYRNGLQRARFLPAIDAIKQHCDVMNVDAGVDYRLRTLTQAHLWLSPLHDETRAQMDKLWLALAGGKRENSPTLEINHRPLATMGVENQTLAVSFTTLCVDARSQHDYIALSRLFHTVMLFDVPVMTRLMESEARRFIALVDEFYERHVKLVVSAEVPLYEIYQGDRLKFEFQRCLSRLQEMQSEEYLKREHLAG",percent of ZapE(K84A) retained on the filter,[2],80.2%
same,binding result,FtsZ (native) [5],binds
B1,binding result,[6],binds
